Each block holds one binder with its values, some of them ahead of it.
Columns and labels:
huNav1.7α + β1-β2-β3 [1] = biological target: T1, huNav1.7α + β1-β2-β3 (human, UniProt Q15858 1-1988; A5A6L6 19-218; O60939 30-215; Q2KI11 23-215); test: competition FACS, HEK FlpIn cells, vs EC30 of CMYC3-F0103265B04
T1 construct: Cell line (CHO FlpIn, HEK FlpIn, transient HEK293T) is named under assay; also called huNav1.7-beta1-beta2-beta3; human Nav1.7α with Navβ1, Navβ2 and Navβ3
Procedure, shortened: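 HEK FlpIn cells expressing huNav1.7α+β1-β2-β3 (1×10⁵/well) were incubated 1.5 h at 4 °C with a dilution series of purified ISVD plus CMYC3-tagged F0103265B04 at EC30-equivalent concentration in PBS, 2% FBS, 0.05% NaN₃. Flow cytometry read-out with 5 nM TOPRO3 to exclude dead cells.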

[2] = biological target: T2, huNav1.7α(F276V) + β1-β2-β3 (human, UniProt Q15858 1-1988; A5A6L6 19-218; O60939 30-215; Q2KI11 23-215); test: binding FACS, CHO FlpIn cells
T2 construct: polyprotein as encoded, P2A sites liberate the subunits; the entry already carries F276V; also called huNav1.7(F276V)-beta1-beta2-beta3
Procedure, shortened: (§1)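 Flow cytometry binding assay on stable CHO FlpIn cell lines expressing Nav1.7α (human wild type, single DI S5-S6 point variants, or rhesus) with β1-β2-β3. Cells in FACS buffer (PBS, 10% FBS, NaN₃) were plated at 1×10^5 cells/well in 96-well V-bottom plates. FLAG3-tagged ISVDs were added for 30 minutes at 4° C and detected with murine anti-Flag. Dead cells were excluded using 1 μg/mL propidium iodide, and EC50 was determined.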

[3] = biological target: T3, huNav1.7α(E281V) + β1-β2-β3 (human); test: binding FACS, CHO FlpIn cells
T3 construct: polyprotein as encoded; the entry already carries E281V; also called huNav1.7(E281V)-beta1-beta2-beta3
Procedure, shortened: as §1

[4] = biological target: T4, huNav1.7α(R277Q) + β1-β2-β3 (human); test: binding FACS, CHO FlpIn cells
T4 construct: polyprotein as encoded; the entry already carries R277Q; also called huNav1.7(R277Q)-beta1-beta2-beta3
Procedure, shortened: as §1

[5] = biological target: T5, huNav1.7α(V331M) + β1-β2-β3 (human); test: binding FACS, CHO FlpIn cells
T5 construct: polyprotein as encoded; the entry already carries V331M; also called huNav1.7(V331M)-beta1-beta2-beta3
Procedure, shortened: as §1

huNav1.7α + β1-β2-β3 [6] = biological target: T1, huNav1.7α + β1-β2-β3; test: binding FACS, CHO FlpIn cells
Procedure, shortened: as §1

huNav157chim6 + β1-β2-β3 = biological target: T6, huNav157chim6 + β1-β2-β3 (human); test: FACS, transiently transfected HEK293T cells
T6 construct: DI, DII, DIV from Nav1.5α, DIII from Nav1.7α; also called huNav157 chimera 6
Experimental: (§2) Binding of the ISVDs to cell-expressed Nav1.7α was detected via murine anti-Flag (Sigma, catalog #F1804). Briefly, cells were resuspended in FACS buffer (PBS, 10% FBS, NaN₃) and transferred to a 96-well V-bottom plate at 1×10^5 cells/well. Purified FLAG3-tagged ISVD was diluted in FACS buffer and added to the cells for 30 minutes at 4° C. […] Prior to the read-out, the samples were resuspended in 1 μg/mL propidium iodide (Sigma, catalog #P4170) to exclude dead cells. Between each step, the cells were centrifuged for 5 minutes at 200 grams and washed with 100 μL/well FACS buffer.
(§3) FACS binding studies (as described above) were performed on HEK293T cells transiently transfected with expression vectors encoding a huNav1.7α or rhNav1.7α fused at the C-terminus via a P2A viral peptide linker to a single polypeptide encoding sodium channel beta subunits Navβ1, Navβ2, and Navβ3 in tandem (β1-β2-β3; SEQ ID NO:21). Similarly, HEK293T cells transiently transfected with expression vectors encoding chimeric variants of huNav1.7α in which individual domains are replaced by their huNav1.5α counterparts (chimeras 1 to 4 in FIG. 16) or with chimeric variants of huNav1.5 in which individual domains are replaced by their huNav1.7α counterparts (chimeras 5 to 8 in FIG. 16) fused at the C-terminus via a P2A viral peptide linker to β1-β2-β3 as above. See Table 7 for description of the expression vectors encoding the chimeras, Table 21 and FIG. 16).

huNav157chim1 + β1-β2-β3 = biological target: T7, huNav157chim1 + β1-β2-β3 (human, UniProt Q15858 1-1962; A5A6L6 19-218; O60939 30-215; Q2KI11 23-215); test: FACS, transiently transfected HEK293T cells
T7 construct: DI, DII, DIII from Nav1.7α, DIV from Nav1.5α; fused by P2A to β1-β2-β3; also called huNav157 chimera 1
Experimental: as §2, §3

huNav157chim5 + β1-β2-β3 = biological target: T8, huNav157chim5 + β1-β2-β3 (human); test: FACS, transiently transfected HEK293T cells
T8 construct: DI, DII, DIII from Nav1.5α, DIV from Nav1.7α; also called huNav157 chimera 5
Experimental: as §2, §3

[7] = biological target: T9, huNav157chim12 + β1-β2-β3 (human, UniProt Q15858 1-1988; A5A6L6 19-218; O60939 30-215; Q2KI11 23-215); test: FACS, transiently transfected HEK293T cells
T9 construct: DI S5-S6 from Nav1.5α, rest Nav1.7α; also called huNav157 chimera 12
Experimental: as §2, §3

huNav157chim7 + β1-β2-β3 = biological target: T10, huNav157chim7 + β1-β2-β3 (human); test: FACS, transiently transfected HEK293T cells
T10 construct: DI, DIII, DIV from Nav1.5α, DII from Nav1.7α; also called huNav157 chimera 7
Experimental: as §2, §3

huNav157chim4 + β1-β2-β3 = biological target: T11, huNav157chim4 + β1-β2-β3 (human, UniProt Q15858 44-1988; A5A6L6 19-218; O60939 30-215; Q2KI11 23-215); test: FACS, transiently transfected HEK293T cells
T11 construct: DII, DIII, DIV from Nav1.7α, DI from Nav1.5α; also called huNav157 chimera 4
Experimental: as §2, §3

huNav1.7α + β1 [8] = biological target: huNav1.7α + β1 (human); test: cell-based or functional assay
rhNav1.7α + β1-β2-β3 [9] = biological target: rhNav1.7α + β1-β2-β3 (rhesus monkey); test: cell-based or functional assay
huNav1.7α + β1-β2-β3 [10] = biological target: T12, huNav1.7α + β1-β2-β3 (human, UniProt Q15858 1-1988; A5A6L6 19-218; O60939 30-215; Q2KI11 23-215); test: competition FACS vs EC25 of 275B05(N93R), CHO FlpIn
T12 construct: also called huNav1.7-beta1-beta2-beta3; huNav1.7-β1-β2-β3

rhNav1.7α + β1-β2-β3 [11] = biological target: T13, rhNav1.7α + β1-β2-β3 (rhesus monkey); test: as above
T13 construct: also called rhNav1.7-beta1-beta2-beta3; rhNav1.7-β1-β2-β3

huNav1.7α + β1 [12] = biological target: T14, huNav1.7α + β1 (human); test: binding FACS, HEK
T14 construct: HEK293 cells; also called huNav1.7-beta1; huNav1.7-β1

huNav1.7α = biological target: T15, huNav1.7α (human, UniProt Q15858 1-1988); test: binding FACS, HEK
T15 construct: HEK cells expressing the α subunit without β subunits; also called huNav1.7 (alpha-subunit); Human Nav1.7α

huNav1.7α + β1-β2-β3 [13] = biological target: T12, huNav1.7α + β1-β2-β3; test: competition FACS vs EC25 of 275B05(N93R), CHO FlpIn, + 50 µM human SA
rhNav1.7α + β1-β2-β3 [14] = biological target: T13, rhNav1.7α + β1-β2-β3; test: as above
huNav1.7α + β1-β2-β3 [15] = biological target: T12, huNav1.7α + β1-β2-β3; test: competition FACS IC50 with 50 µM human SA against without
rhNav1.7α + β1-β2-β3 [16] = biological target: T13, rhNav1.7α + β1-β2-β3; test: as above
huNav1.7α + β1 [17] = biological target: T14, huNav1.7α + β1; test: cell-based or functional assay; remark: listed apart in the source
rhNav1.7α + β1-β2-β3 [18] = biological target: T13, rhNav1.7α + β1-β2-β3; test: cell-based or functional assay; remark: listed apart in the source
rhNav1.7α+β1-β2-β3 = biological target: T16, rhNav1.7α+β1-β2-β3 (rhesus monkey α subunit with human β …); test: binding FACS
T16 construct: P2A cleaves it into α, β1, β2, β3; also called rhNav1.7-beta1-beta2-beta3

huNav1.7α+β1-β2-β3 = biological target: T17, huNav1.7α+β1-β2-β3 (human, UniProt Q15858 1-1988; Q07699 19-218; O60939 30-215; Q9NY72 23-215); test: binding FACS
T17 construct: 5N11S variant; also called huNav1.7-beta1-beta2-beta3; huNav1.7α+Navβ1-Navβ2-Navβ3

- IC50 (huNav1.7α + β1-β2-β3 [1]): 98 nM
- EC50 [2]: 26 nM
- EC50 [3]: 24 nM
- EC50 [4]: 25 nM
- EC50 [5]: 21 nM
- EC50 (huNav1.7α + β1-β2-β3 [6]): 30 nM
- binding result (huNav157chim6 + β1-β2-β3): no binding (tested: 1 µM)
- binding result (huNav157chim1 + β1-β2-β3): no binding (tested: 1 µM)
- binding result (huNav157chim5 + β1-β2-β3): no binding (tested: 1 µM)
- binding result [7]: no binding (tested: 1 µM)
- binding result (huNav157chim7 + β1-β2-β3): no binding (tested: 1 µM)
- binding result (huNav157chim4 + β1-β2-β3): no binding (tested: 1 µM)
B1: F0103275B05 (VHH)
VHH: EVQLVESGGGLVQPGGSLRLSCAASGSIFNINSMAWYRRAPGKQRELVASSTNGGSTNYADSVKGRFTISRDNAKRVYLQMNSLTPEDTAVYYCNALLQPSIYDISRTYWGQGTLVTVSS
notes: entry includes the FLAG-HIS6 tag; also called F0103275B05 (parental)-FLAG-HIS6

- QPatch electrophysiology IC50 [M], HEK cells (huNav1.7α + β1 [8]): 1.8e-08 M
- QPatch electrophysiology IC50 [M], HEK cells (rhNav1.7α + β1-β2-β3 [9]): 6e-09 M
- IC50 (huNav1.7α + β1-β2-β3 [10]): 37 nM
- IC50 (rhNav1.7α + β1-β2-β3 [11]): 14 nM
- EC50 (huNav1.7α + β1 [12]): 4.2 nM
- EC50 (huNav1.7α): 4.9 nM
- IC50 (huNav1.7α + β1-β2-β3 [13]): 39 nM
- IC50 (rhNav1.7α + β1-β2-β3 [14]): 16 nM
- Human SA ratio (huNav1.7α + β1-β2-β3 [15]): 1
- Human SA ratio (rhNav1.7α + β1-β2-β3 [16]): 1
- Qpatch IC50 [M], HEK cells (huNav1.7α + β1 [17]): 1.8e-08 M
- Qpatch IC50 [M], HEK cells (rhNav1.7α + β1-β2-β3 [18]): 6e-09 M
B2: F010301656 (VHH)
VHH: EVQLVESGGGLAQPGGSLRLSCAASGPVFNINRMAWYRRAPGKQRELVAYVTPTGDISYTDSVKGRFTISRDGSKRWSLQMNSLTPEDTAVYYCRALLQPDSYSNTRTYWGQGTLVTVSS
notes: also called F0103387G04(K33R, S50Y, S56D, N93R)-FLAG3-HIS6

- fold improved binding vs F0103387G04 (rhNav1.7α+β1-β2-β3): 20 fold
- fold improved binding vs F0103387G04 (huNav1.7α+β1-β2-β3): 2 fold
B3: F010302383 (VHH)
VHH: EVQLVESGGGVVQPGGSLRLSCAASGPVFNINRMAWYRQAPGKQRELVAYVTPTGDISYADSVKGRFTISRGGSKRVYLQMNSLRPEDTALYYCRALLQPSSYSGTRTYWGQGTLVTVSS
notes: also called F0103387G04(L11V, A12V, K33R, R39Q, S50Y, S56D, T60A, D72G, W78V, S79Y, T83R, V89L, N93R, D99S, N100cG)+FLAG3-HIS6
